Experiments:
[1] = molecular target: T1, Arabidopsis thaliana PHYTOCHROME A SIGNAL TRANSDUCTION1 (Arabidopsis thaliana, UniProt Q9LDL7 1-490); assay: yeast two-hybrid
T1 construct: 490 aa; Y2H fusion domains not described; also called PAT1; At5g48150
T1 sequence: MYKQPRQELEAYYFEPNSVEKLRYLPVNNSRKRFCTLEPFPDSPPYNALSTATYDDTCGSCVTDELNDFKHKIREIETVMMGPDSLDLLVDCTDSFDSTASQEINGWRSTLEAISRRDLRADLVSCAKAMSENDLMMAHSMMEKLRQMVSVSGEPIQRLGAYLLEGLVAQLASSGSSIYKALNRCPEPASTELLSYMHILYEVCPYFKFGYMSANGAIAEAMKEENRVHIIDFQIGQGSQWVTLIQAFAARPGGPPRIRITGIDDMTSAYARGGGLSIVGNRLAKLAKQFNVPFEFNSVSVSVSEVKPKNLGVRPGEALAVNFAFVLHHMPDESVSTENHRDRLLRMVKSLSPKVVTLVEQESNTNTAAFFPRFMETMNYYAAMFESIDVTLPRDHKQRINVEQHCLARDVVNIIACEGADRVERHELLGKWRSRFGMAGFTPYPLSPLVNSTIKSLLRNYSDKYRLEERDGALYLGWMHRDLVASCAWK

[2] = molecular target: T2, Arabidopsis thaliana SCARECROW-LIKE 21 (Arabidopsis thaliana, UniProt Q9S7H5 1-413); assay: yeast two-hybrid with ERF115 fragments
T2 construct: Y2H fusion domains not described; Also the endogenous protein co-purifying in the ERF115 TAP; also called SCL21; AT2G04890
T2 sequence: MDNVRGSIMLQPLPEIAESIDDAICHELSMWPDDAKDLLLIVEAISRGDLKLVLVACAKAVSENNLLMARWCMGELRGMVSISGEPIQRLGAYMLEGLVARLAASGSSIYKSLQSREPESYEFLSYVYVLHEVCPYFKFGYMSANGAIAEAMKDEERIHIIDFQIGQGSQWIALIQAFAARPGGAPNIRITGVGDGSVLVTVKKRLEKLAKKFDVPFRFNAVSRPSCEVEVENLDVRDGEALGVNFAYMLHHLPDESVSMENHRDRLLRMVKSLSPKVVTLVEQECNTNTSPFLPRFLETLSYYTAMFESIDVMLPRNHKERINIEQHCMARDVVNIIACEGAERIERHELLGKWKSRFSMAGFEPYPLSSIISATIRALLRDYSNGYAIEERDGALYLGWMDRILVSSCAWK
Procedure: FIGS. 1A-1L. ERF115 interacts with SCL21 and PAT1. FIG. 1A, Protein interactions identified through TAP using ERF115 and SCL21 as bait. Arrowheads point towards co-purifying proteins. FIG. 1B, Yeast two-hybrid interaction of ERF115 full length and fragments with SCL21 and PAT1. Growth was verified on control medium (+HIS) or selective medium (−HIS) supplemented with 15 mM 3-Amino-1,2,4-triazole (3-AT), using β-glucuronidase (GUS) as a negative control. FIG. 1C, Yeast two-hybrid interaction of ERF2 and ERF6 without (−) or fused to the conserved ERF115 interaction motif (+) with SCL21. The assay was performed similar to (FIG. 1B). […], Root tips expressing ERF115 (dots) (FIGS. 1D and 1E), SCL21 (no expression visible) (FIGS. 1F and 1G), and PAT1 (dots) (FIGS. 1H And 1I) under control conditions (FIGS. 1D, 1F, and 1H) or treated with bleomycin (FIGS. 1E, 1G, and 1I). Arrowheads indicate the quiescent center (QC). Cell walls are counterstained with propidium iodide (PI). Bars=50 μm. FIGS. 1J-1L, Expression of PAT1 (green) and ERF115 (red) in root tips 10 h15 to 11 h30 after recovery from bleomycin treatment. […] Cell walls are counterstained (white) by SCRI Renaissance 2200 dye. Bars=25 μm.

B1: Arabidopsis thaliana ERF115 A-fragment (N-terminal sequence that precedes the APETALA2 domain) (other)
chain: MANSGNYGKRPFRGDESDEKKEADDDENIFPFFSARSQYDMRAMVSALTQVIGNQSSSHDNNQHQPVVYNQQDPNPPAPPTQDQGLLRK
notes: Y2H fusion domains not described
binding result [1]: binds
binding result [2]: binds
